Experimental findings from publication PMC6555819, “Comprehensive study of nuclear receptor DNA binding provides a revised framework for understanding receptor specificity” are described below.

The labels stand for the following.
B1: NRC3_wobSeed77_DR3_G19A_o1 (dsDNA)
DNA 1: GCACTTACGGGTCAACGAAGTTATAGCACGCGTATAGCGATTGACAGCGTAGAATGAAGG
DNA 2: CCTTCATTCTACGCTGTCAATCGCTATACGCGTGCTATAACTTCGTTGACCCGTAAGTGC
B2: NRC3_wobSeed79_DR3_C17A_o1 (dsDNA)
DNA 1: GCTCATATAGGTAATAAAGGTGAAAGTCGGCATCTAGCGATTGACAGCGTAGAATGAAGG
DNA 2: CCTTCATTCTACGCTGTCAATCGCTAGATGCCGACTTTCACCTTTATTACCTATATGAGC
B3: NRC3_wobSeed74_DR3_A27G_o1 (dsDNA)
DNA 1: GCTCTAGTTGGTCACGGAGGTCACACGCGACGGGTAGCGATTGACAGCGTAGAATGAAGG
DNA 2: CCTTCATTCTACGCTGTCAATCGCTACCCGTCGCGTGTGACCTCCGTGACCAACTAGAGC
B4: NRC3_wobSeed7_DR0_A13T_o1 (dsDNA)
DNA 1: GCTCATATAGGTTAAGGTGAAAGTCGAACGATATGAGCGATTGACAGCGTAGAATGAAGG
DNA 2: CCTTCATTCTACGCTGTCAATCGCTCATATCGTTCGACTTTCACCTTAACCTATATGAGC
B5: NRC3_wobSeed141_DR5_C26A_o1 (dsDNA)
DNA 1: GCAGTCAAAGTTCAGGACGAGGTAAAGTAAAGCACGGCGATTGACAGCGTAGAATGAAGG
DNA 2: CCTTCATTCTACGCTGTCAATCGCCGTGCTTTACTTTACCTCGTCCTGAACTTTGACTGC
B6: NRC3_wobSeed141_DR5_G22A_o1 (dsDNA)
DNA 1: GCAGTCAAAGTTCAGGACGAGATAACGTAAAGCACGGCGATTGACAGCGTAGAATGAAGG
DNA 2: CCTTCATTCTACGCTGTCAATCGCCGTGCTTTACGTTATCTCGTCCTGAACTTTGACTGC
B7: NRC3_wobSeed27_DR1_A15G_o1 (dsDNA)
DNA 1: GCACTCGGAGGACAGAGGTCAGAGCTACGCCAGTGAGCGATTGACAGCGTAGAATGAAGG
DNA 2: CCTTCATTCTACGCTGTCAATCGCTCACTGGCGTAGCTCTGACCTCTGTCCTCCGAGTGC
B8: NRC3_wobSeed22_DR0_T22G_o1 (dsDNA)
DNA 1: GCTTACCAAGGTGAAGGTCGTGGATCCCTCTGTAGAGCGATTGACAGCGTAGAATGAAGG
DNA 2: CCTTCATTCTACGCTGTCAATCGCTCTACAGAGGGATCCACGACCTTCACCTTGGTAAGC
B9: NRC3_wobSeed58_DR2_G18C_o1 (dsDNA)
DNA 1: GCATCGAAAGGTCGTGACGTGAGTATACAGAAAGGCGCGATTGACAGCGTAGAATGAAGG
DNA 2: CCTTCATTCTACGCTGTCAATCGCGCCTTTCTGTATACTCACGTCACGACCTTTCGATGC
B10: NRC3_wobSeed53_DR2_C15G_o1 (dsDNA)
DNA 1: GCCCTTACGGGTCAGGAGGTTATAGCACGACGAGCGGCGATTGACAGCGTAGAATGAAGG
DNA 2: CCTTCATTCTACGCTGTCAATCGCCGCTCGTCGTGCTATAACCTCCTGACCCGTAAGGGC
B11: NRC3_wobSeed61_DR2_T24A_o1 (dsDNA)
DNA 1: GCCGTCCAAGGTCAGCAGGTCAGAGAAAGCGACGTGGCGATTGACAGCGTAGAATGAAGG
DNA 2: CCTTCATTCTACGCTGTCAATCGCCACGTCGCTTTCTCTGACCTGCTGACCTTGGACGGC
B12: NRC3_wobSeed61_DR2_C21G_o1 (dsDNA)
DNA 1: GCCGTCCAAGGTCAGCAGGTGAGTGAAAGCGACGTGGCGATTGACAGCGTAGAATGAAGG
DNA 2: CCTTCATTCTACGCTGTCAATCGCCACGTCGCTTTCACTCACCTGCTGACCTTGGACGGC
B13: NRC3_wobSeed34_DR1_C5A_o1 (dsDNA)
DNA 1: GCATAGAAAGGTCGAAGGTGAGTATACCCACCCGAAGCGATTGACAGCGTAGAATGAAGG
DNA 2: CCTTCATTCTACGCTGTCAATCGCTTCGGGTGGGTATACTCACCTTCGACCTTTCTATGC
B14: NRC3_wobSeed34_DR1_T25C_o1 (dsDNA)
DNA 1: GCATCGAAAGGTCGAAGGTGAGTACACCCACCCGAAGCGATTGACAGCGTAGAATGAAGG
DNA 2: CCTTCATTCTACGCTGTCAATCGCTTCGGGTGGGTGTACTCACCTTCGACCTTTCGATGC
B15: NRC3_wobSeed119_DR4_A9G_o1 (dsDNA)
DNA 1: GCGGAACGGGGGCATTCGAGTTGATAGCATGGCGATGCGATTGACAGCGTAGAATGAAGG
DNA 2: CCTTCATTCTACGCTGTCAATCGCATCGCCATGCTATCAACTCGAATGCCCCCGTTCCGC
B16: NRC3_wobSeed133_DR5_G17T_o1 (dsDNA)
DNA 1: GCCGTCCAAGGTCAATTCTAGGTCAGTGAAAGCATTGCGATTGACAGCGTAGAATGAAGG
DNA 2: CCTTCATTCTACGCTGTCAATCGCAATGCTTTCACTGACCTAGAATTGACCTTGGACGGC
B17: NRC3_wobSeed133_DR5_C7G_o1 (dsDNA)
DNA 1: GCCGTCGAAGGTCAATGCTAGGTCAGTGAAAGCATTGCGATTGACAGCGTAGAATGAAGG
DNA 2: CCTTCATTCTACGCTGTCAATCGCAATGCTTTCACTGACCTAGCATTGACCTTCGACGGC
B18: NRC3_wobSeed133_DR5_G22C_o1 (dsDNA)
DNA 1: GCCGTCCAAGGTCAATGCTAGCTCAGTGAAAGCATTGCGATTGACAGCGTAGAATGAAGG
DNA 2: CCTTCATTCTACGCTGTCAATCGCAATGCTTTCACTGAGCTAGCATTGACCTTGGACGGC
B19: NRC3_wobSeed32_DR1_A9T_o1 (dsDNA)
DNA 1: GCTCTTGTTGATCAAAGGTTAAGAAAGCCGAAGCCTGCGATTGACAGCGTAGAATGAAGG
DNA 2: CCTTCATTCTACGCTGTCAATCGCAGGCTTCGGCTTTCTTAACCTTTGATCAACAAGAGC
B20: NRC3_wobSeed40_DR1_A21T_o1 (dsDNA)
DNA 1: GCTAGCCTAGGTCATGGGCCTGTATACCACGCGAACGCGATTGACAGCGTAGAATGAAGG
DNA 2: CCTTCATTCTACGCTGTCAATCGCGTTCGCGTGGTATACAGGCCCATGACCTAGGCTAGC
B21: NRC3_wobSeed55_DR2_A15T_o1 (dsDNA)
DNA 1: GCTCATATAGGTAATCAGGTGAAAGTCCGTAAGTTAGCGATTGACAGCGTAGAATGAAGG
DNA 2: CCTTCATTCTACGCTGTCAATCGCTAACTTACGGACTTTCACCTGATTACCTATATGAGC
B22: NRC3_wobSeed138_DR5_A6T_o1 (dsDNA)
DNA 1: GCGATTCAGGGTCAGCTAGAGGCCAGAGTATGGAAAGCGATTGACAGCGTAGAATGAAGG
DNA 2: CCTTCATTCTACGCTGTCAATCGCTTTCCATACTCTGGCCTCTAGCTGACCCTGAATCGC
B23: NRC3_wobSeed85_DR3_A27T_o1 (dsDNA)
DNA 1: GCCGTCCAAGGTCAGAGAGGTCAGTGTATGCCGAGTGCGATTGACAGCGTAGAATGAAGG
DNA 2: CCTTCATTCTACGCTGTCAATCGCACTCGGCATACACTGACCTCTCTGACCTTGGACGGC
B24: NRC3_wobSeed85_DR3_A28C_o1 (dsDNA)
DNA 1: GCCGTCCAAGGTCAGAGAGGTCAGTGACTGCCGAGTGCGATTGACAGCGTAGAATGAAGG
DNA 2: CCTTCATTCTACGCTGTCAATCGCACTCGGCAGTCACTGACCTCTCTGACCTTGGACGGC
B25: NRC3_wobSeed125_DR5_A14G_o1 (dsDNA)
DNA 1: GCCCTTACGGGTCGCTGACAGGTTATAGCATTTGGAGCGATTGACAGCGTAGAATGAAGG
DNA 2: CCTTCATTCTACGCTGTCAATCGCTCCAAATGCTATAACCTGTCAGCGACCCGTAAGGGC
B26: NRC3_wobSeed65_DR2_T6C_o1 (dsDNA)
DNA 1: GCATACGTAGGTTATCGGGTCATTCAGTTTGCGCATGCGATTGACAGCGTAGAATGAAGG
DNA 2: CCTTCATTCTACGCTGTCAATCGCATGCGCAAACTGAATGACCCGATAACCTACGTATGC
B27: NRC3_wobSeed90_DR3_G9C_o1 (dsDNA)
DNA 1: GCCATACACGGTCAGCTAGGCCAGAGTAGGGACGGCGCGATTGACAGCGTAGAATGAAGG
DNA 2: CCTTCATTCTACGCTGTCAATCGCGCCGTCCCTACTCTGGCCTAGCTGACCGTGTATGGC
B28: NRC3_wobSeed28_DR1_T23A_o1 (dsDNA)
DNA 1: GCCCTACTGGGCCAAAGGTCATAGATTCCAATGCTCGCGATTGACAGCGTAGAATGAAGG
DNA 2: CCTTCATTCTACGCTGTCAATCGCGAGCATTGGAATCTATGACCTTTGGCCCAGTAGGGC
B29: NRC3_wobSeed20_DR0_A9G_o1 (dsDNA)
DNA 1: GCAGAATGGGGTTAAGATCAGGGAAACAGAATACATGCGATTGACAGCGTAGAATGAAGG
DNA 2: CCTTCATTCTACGCTGTCAATCGCATGTATTCTGTTTCCCTGATCTTAACCCCATTCTGC
B30: NRC3_wobSeed20_DR0_G4A_o1 (dsDNA)
DNA 1: GCAAAATGAGGTTAAGATCAGGGAAACAGAATACATGCGATTGACAGCGTAGAATGAAGG
DNA 2: CCTTCATTCTACGCTGTCAATCGCATGTATTCTGTTTCCCTGATCTTAACCTCATTTTGC
B31: NRC3_wobSeed4_DR0_T22A_o1 (dsDNA)
DNA 1: GCCCTACTGGGCCAAGGTCATAGATCAGTCAAAGCAGCGATTGACAGCGTAGAATGAAGG
DNA 2: CCTTCATTCTACGCTGTCAATCGCTGCTTTGACTGATCTATGACCTTGGCCCAGTAGGGC
B32: NRC3_wobSeed46_DR1_G10A_o1 (dsDNA)
DNA 1: GCTTACCAAAGTGAAAGGTCGTTGATGCACGCCTTGGCGATTGACAGCGTAGAATGAAGG
DNA 2: CCTTCATTCTACGCTGTCAATCGCCAAGGCGTGCATCAACGACCTTTCACTTTGGTAAGC

For this data set, the target named is PPARg:RXRa (Homo sapiens, UniProt P37231;P19793 full;full). Description: no ligand; PBM; 180 nM : 90 nM RXRa; PBS pH 7.4, 2% milk, 0.02% Triton X-100, 1 mM DTT, BSA, 0.4 mg/ml salmon testes DNA. The settings on record: tags: His kept;His cleaved; copies: 1;1; label: surface-attached array probe.
Chain of PPARg:RXRa (P37231 29-505, chain 1 of 2): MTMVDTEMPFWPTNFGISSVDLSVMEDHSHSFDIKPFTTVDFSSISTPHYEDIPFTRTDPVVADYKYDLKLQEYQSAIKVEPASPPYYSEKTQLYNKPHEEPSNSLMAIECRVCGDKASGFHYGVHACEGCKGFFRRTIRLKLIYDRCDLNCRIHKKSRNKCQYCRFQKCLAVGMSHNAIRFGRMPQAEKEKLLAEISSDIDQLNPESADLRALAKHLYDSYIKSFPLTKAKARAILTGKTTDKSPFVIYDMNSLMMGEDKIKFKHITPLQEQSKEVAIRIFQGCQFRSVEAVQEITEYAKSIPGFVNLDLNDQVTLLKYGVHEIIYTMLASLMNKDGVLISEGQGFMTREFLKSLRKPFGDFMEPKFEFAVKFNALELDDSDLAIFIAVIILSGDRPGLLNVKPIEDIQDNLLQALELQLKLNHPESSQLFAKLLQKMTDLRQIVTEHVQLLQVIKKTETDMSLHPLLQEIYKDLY
Chain of PPARg:RXRa (P19793 whole entry, chain 2 of 2): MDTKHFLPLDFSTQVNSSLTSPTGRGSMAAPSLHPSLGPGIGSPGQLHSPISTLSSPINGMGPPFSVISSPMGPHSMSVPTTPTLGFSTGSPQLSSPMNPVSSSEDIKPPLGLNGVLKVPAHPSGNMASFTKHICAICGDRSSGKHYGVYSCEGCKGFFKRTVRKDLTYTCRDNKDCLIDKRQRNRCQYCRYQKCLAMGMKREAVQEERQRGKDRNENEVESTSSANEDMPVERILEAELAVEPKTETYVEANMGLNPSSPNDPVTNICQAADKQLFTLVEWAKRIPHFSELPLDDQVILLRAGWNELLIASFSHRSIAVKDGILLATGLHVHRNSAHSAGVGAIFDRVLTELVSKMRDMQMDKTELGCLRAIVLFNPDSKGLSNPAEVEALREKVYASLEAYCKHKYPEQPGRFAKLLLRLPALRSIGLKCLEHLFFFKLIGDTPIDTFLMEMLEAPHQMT
As to B1, the binding signal is 4.99 PBM z-score against 500 random probes.
Take B2: the binding signal was 3.46 PBM z-score against 500 random probes.
In the case of B3 it was 3.93 PBM z-score against 500 random probes; in that of B4, 4.42 PBM z-score against 500 random probes; in that of B5, 4.92 PBM z-score against 500 random probes.
Take B6: the binding signal is 4.64 PBM z-score against 500 random probes.
For the molecule B7, the binding signal is 4.56 PBM z-score against 500 random probes.
Consider B8, for which the binding signal was 3.58 PBM z-score against 500 random probes.
Turning to B9, the binding signal was 3.63 PBM z-score against 500 random probes.
B10: the binding signal is 3.77 PBM z-score against 500 random probes.
On to B11, for which the binding signal is 4.83 PBM z-score against 500 random probes.
Regarding B12, the binding signal was 3.18 PBM z-score against 500 random probes.
For B13 the value was 5.06 PBM z-score against 500 random probes.
For B14 the value was 4.49 PBM z-score against 500 random probes; for B15, 3 PBM z-score against 500 random probes.
B16: the binding signal is 4.21 PBM z-score against 500 random probes.
On to B17, for which the binding signal was 4.13 PBM z-score against 500 random probes.
Take B18: the binding signal is 3.28 PBM z-score against 500 random probes.
In the case of B19 it was 4.28 PBM z-score against 500 random probes; in that of B20, 3.23 PBM z-score against 500 random probes; in that of B21, 3.84 PBM z-score against 500 random probes.
In the case of B22 it was 4.08 PBM z-score against 500 random probes; in that of B23, 3.51 PBM z-score against 500 random probes; in that of B24, 3.39 PBM z-score against 500 random probes.
As to B25, the binding signal is 0.49 PBM z-score against 500 random probes.
Turning to B26, the binding signal was 3.06 PBM z-score against 500 random probes.
As to B27, the binding signal is 0.49 PBM z-score against 500 random probes.
As to B28, the binding signal was 12.8 PBM z-score against 500 random probes.
Regarding B29, the binding signal is 4.73 PBM z-score against 500 random probes.
As for B30, the binding signal is 3.12 PBM z-score against 500 random probes.
With B31, the binding signal was 4.36 PBM z-score against 500 random probes.
With B32, the binding signal is 3.7 PBM z-score against 500 random probes.
